The values that follow come from US12364743B2, “Microbiota sequence variants of tumor-related antigenic epitopes” (ENTEROME S.A., priority 2016, dated 2025).

The subject of assay [1] is unresectable or metastatic melanoma. The following applies: patients; cited from earlier work.
In assay [2] the target is T1, HLA-A*0201 (Homo sapiens, UniProt P04439, D140Y/D185E/D98H/E176V/E277Q/G131W/G231S/I119V/I121R/I166T/I218V/L300P/L318F/N151K/N90K/P208A/P217A/Q86G/Q94H/R138H/R169H/T345S).
T1 construct: the human tumoral cell T2 which expresses the HLA-A*0201 molecule, but which is TAP 1/2 negative; endogenous in cells; host or cells: T2 cells (human, TAP 1/2 negative)
Description: Affinity of peptides to HLA-A*0201 on T2 cells (FACS, anti-HLA-A2). The following applies: for binding affinity to HLA-A*0201 compared among peptides: Example 5; for concentration inducing 20% of expression of the HLA-A*0201: 100% = reference peptide HIV pol 589-597 at 100 μM; for Mean fluorescence intensity: 16 hours. Format: binding. The text has this:
The experimental protocol is similar to the one that was validated for peptides presented by the HLA-A*0201 (Tourdot et al., A general strategy to enhance immunogenicity of low-affinity HLA-A2.1-associated peptides: implication in the identification of cryptic tumor epitopes. Eur J Immunol. 2000 December; […]:3411-21). Affinity measurement of the peptides is achieved with the human tumoral cell T2 which expresses the HLA-A*0201 molecule, but which is TAP 1/2 negative and incapable of presenting endogenous peptides.
T2 cells (2.10^5 cells per well) were incubated with decreasing concentrations of peptides from 100 μM to 0.1 μM in a AIMV medium supplemented with 100 ng/μl of human β2m at 37° C. for 16 hours. Cells were then washed two times and marked with the anti-HLA-A2 antibody coupled to PE (clone BB7.2, BD Pharmagen).
The analysis was performed by FACS (Guava Easy Cyte). […] A2. Solubilisation of Peptides
The experimental protocol, materials and methods correspond to those outlined in Example 4, with the only difference that the above mentioned antigenic peptides were used.

Assay [3] has as its system β/A2/DR3 mice. Briefly: ELISPOT-IFNγ on splenocytes of vaccinated mice. Conditions: for percentage of ConA-induced response (mean+/−SEM): ELISPOT-IFNγ, vaccination 100 μg s.c. d0 and d14, spleen d21. The class given is in vivo, mouse. The text has this: Briefly, 14 β/A2/DR3 mice were assigned randomly (based on mouse sex and age) to two experimental groups, each immunized with a specific vaccination peptide (vacc-pAg) combined to a common helper peptide (h-pAg) (as outlined in Table 7 below). The vacc-pAg were compared in couples (group 1 vs. group 2). Thereby, both native and optimized versions of a single peptide were compared in each wave.
The animals were immunized on day o (do) with a prime injection, and on d14 with a boost injection. Each mouse was injected s.c. at tail base with 100 μL of an oil-based emulsion that contained: • 100 μg of vacc-pAg (25 μL of 4 mg/mL stock per mouse); • 150 μg of h-pAg (15 μL of 10 mg/mL stock per mouse); • 10 μL of PBS to reach a total volume of 50 μL (per mouse); • Incomplete Freund's Adjuvant (IFA) added at 1:1 (v:v) ratio (50 μL per mouse).
Seven days after the boost injection (i.e. on d21), the animals were euthanized and the spleen was harvested. Splenocytes were prepared by mechanical disruption of the organ followed by 70 μm-filtering and Ficoll density gradient purification.
The splenocytes were immediately used in an ELISPOT-IFNγ assay (Table 8). Experimental conditions were repeated in quadruplets, using 2*10^5 total splenocytes per well, and were cultured in presence of vacc-pAg (10 μM), Concanavalin A (ConA, 2.5 μg/mL) or medium-only to assess for their capacity to secrete IFNγ. The commercial ELISPOT-IFNγ kit (Diaclone Kit Mujrine IFNγ ELISpot) was used following the manufacturer's instructions, and the assay was performed after about 16 h of incubation.
Spots were counted on a Grand ImmunoSpot® S6 Ultimate UV Image Analyzer interfaced to the ImmunoSpot 5.4 software (CTL-Europe). Data plotting and statistical analysis were performed with the Prism-5 software (GraphPad Software Inc.).
The data were then normalized as a number of specific spots (the average counts obtained in the ‘medium only’ condition being subtracted) per 10^6 total T cells.
The individual average values (obtained from the quadruplicates) were next used to plot the group average values (see FIG. 3A). As the functional capacity of T cells might vary from individual to individual, the data were also expressed as the percentage of the ConA response per individual (see FIG. 3B).

For assay [4], the system named is U87-MG cells. Briefly: In vitro cytotoxicity of CD3+ T cells from immunized mice against U87 cells. Format: cell-based. Conditions: CD3+ T cells of mice immunized with the peptide; 72 hours co-culture; DAPI/annexin V cytometry. As for the experimental part:
Briefly, CD8 T cells from mice immunized with IL13RA2-H or […] were used. These cells were obtained after sorting of splenocyte from immunized mice and were placed on top of U87 cells (tumor cells expressing IL13RA2).
In more detail, CD3^+ T cells were purified from splenocytes of HHD mice immunized with IL13RA2-H ([…], SEQ ID NO: 1) or IL13RA2-B ([…], SEQ ID NO: 18). To this end, B6 β2 m^ko HHD/DR3 mice were injected s.c. at tail base with 100 μL of an oil-based emulsion containing vaccination peptide plus helper peptide plus CFA (complete Freund's adjuvant), at day 0 and day 14 as described in Example 5. On d21, i.e. seven days after the boost injection, the animals were euthanized and the spleen was harvested. Splenocytes were prepared by mechanical disruption of the organ. CD3+ purification was performed using the mouse total T cells isolation kit from Miltenyi biotec using the recommended procedure. […]
U87-MG cells were seeded at 6×10^5 cells/well in flat-bottomed 24-well culture plates and incubated for 24 h at 37° C. in DMEM (Dulbecco's Modified Eagle Medium) containing 10% of FCS (fetal calf serum) and antibiotics. […] 72 hours after co-culture of U87-MG cells and CD3+ T cells, all cells from the wells were harvested and specific U87-MG cell death was evaluated after immunostaining of CD45 negative cells with DAPI and fluorescent annexin V followed by cytometry analysis.

In assay [5] the test system is renal cell carcinoma (RCC). The following applies: patients; cited from earlier work.
The subject of assay [6] is NSCLC. The following applies: patients; cited from earlier work.
Where [7] appears, read: ex vivo re-stimulation with IL13RA2-B pAg 10 μM.
[8] abbreviates: ex vivo re-stimulation with IL13RA2-H pAg 10 μM.

Consider Ipilumumab: anti-CTLA-4 antibody, for which the three-year survival rate result in assay [1] is “around 20%”.
As for “1A9V: SEQ ID NO: 1 with tryptophan at position 1 substituted by alanine and isoleucine at position 9 by valine (Eguchi et al., 2006) (ALPFGFILV; listed as Homo sapiens)”, the “binding affinity to HLA-A*0201 compared among peptides” value in assay [2] was “lowest affinity of the peptides tested”.
Regarding “FLPFGFILV (sequence variant) [SEQ ID NO: 18]”, in assay [2], the “binding to HLA-A*0201” value is on record as “binds strongly”. In addition, the “concentration inducing 20% of expression of the HLA-A*0201” value in assay [2] stood at 4.4 µM. The “binding affinity to HLA-A*0201 compared among peptides” value in assay [2] is reported as “considerably higher binding affinity to HLA-A*0201 than all other peptides tested”. For the same substance, the Mean fluorescence intensity was determined as 9.9 in assay [2] (peptide at 0.1 μM), 12.18 in assay [2] (peptide at 1 μM), 40.77 in assay [2] (peptide at 10 μM) and 112.05 in assay [2] (peptide at 100 μM). Besides, the “In vitro binding affinity” value in assay [2] (relative affinity = concentration inducing 20% of HLA-A*0201 expression / that of reference peptide HIV pol 589-597, lower = stronger) came out at 0.49. Also, the “percentage of ConA-induced response (mean+/−SEM)” value in assay [3] (setting [7]) was found to be 56.3%+/−18.1; in assay [3] (setting [8]), 32.3%+/−11.8. In assay [3] (compared to IL13RA2-H-vaccinated animals), the “T cell responses in the ELISPOT-IFNγ assay” value is recorded as “improved T cell responses”. In addition, in assay [4], the U87 cell lysis entry was “U87 cell lysis was observed”.
Consider “WLPFGFILI (listed as Homo sapiens) [SEQ ID NO: 1]”, for which, in assay [2], the “binding to HLA-A*0201” value is recorded as “does not bind”. Moreover, the “concentration inducing 20% of expression of the HLA-A*0201” value in assay [2] came to 100 µM. Further, the Mean fluorescence intensity in assay [2] (peptide at 0.1 μM) came to 7.46; in assay [2] (peptide at 1 μM) it was 9.41; in assay [2] (peptide at 10 μM), 11.61; in assay [2] (peptide at 100 μM), 18.64. The entries for the “percentage of ConA-induced response (mean+/−SEM)” value in assay [3] (setting [7]) and in assay [3] (setting [8]) were 2.0%+/−0.8 and 1.1%+/−0.8, respectively. The U87 cell lysis entry in assay [4] was “not”.
“Nivolumab: check point inhibitor targeting PD1”: the three-year survival rate in assay [5] is 44%; in assay [6], 18%.
